This note sets out measurements from article doi:10.1101/2020.05.06.080432.

Assay in all cases: MST
For test [1], the target named is His6-GlnK1 (Methanosarcina mazei) (UniProt Q8PYW7).
Test [2] concerns the target His6-GlnA1 (Methanosarcina mazei) (UniProt Q8PY99).
Test [3] deals with synthesized sP26 (Davids Biotechnologie), nt-647-NHS-labeled (Methanosarcina mazei).

The term Kd denotes the constant that tells how readily two partners part at equilibrium. For the molecule His6-sP26 (natural protein), the dissociation constant (Kd) in test [1] was 1400 nM; in test [2], 45000 nM.

B1: His6-GlnK1 (natural protein)
chain: MVAMKYVIAMIRPERLDAVKRELQKIEVSRLTVSSVSGYGAQKGYMEIYRAMEYDANLLEKIKIEIAVNDEFLEPTIEAIKTGAKGSDGYVGSGKIFVLPLENVIRIRTNETGPEAI
As to B1, the dissociation constant Kd in test [3] turned out to be 47 nM.

B2: His6-GlnA1 (enzyme)
chain: MVQMKKCTTKEDVLEAVKERDVKFIRTQFTDTLGIIKSWAIPAEQLEEAFENGVMFDGSSIQGFTRIEESDMKLALDPSTFRILPWRPATGAVARILGDVYLPDGNPFKGDPRYVLKTAIKEAEKMGFSMNVGPELEFFLFKLDANGNPTTELTDQGGYFDFAPLDRAQDVRRDIDYALEHMGFQIEASHHEVAPSQHEIDFRFGDVLCTADNVVTFKYVVKSIAYHKGYYASFMPKPLFGVNGSGMHSNQSLFKDGKNVFYDPDTPTKLSQDAMYYIGGLLKHIREFTAVTNPVVNSYKRLVPGYEAPVYISWSAQNRSSLIRIPATRGNGTRIELRCPDPACNPYLAFALMLRAGLEGIKNKIDPGEPTNVNIFHLSDKEREERGIRSLPADLKEAIDEMKGSKFVKEALGEHVFSHYLCAKEMEWDEYKAVVHPWELSRYLSML
In test [3], B2 had a Kd of 76 nM.
